Tested on: RAJI cells
Experiment: JNG assay, co-culture with RAJI cells
Assay type: cell-based
Conditions: JNG cells expressing construct, co-culture with Raji
Method in brief: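 Jurkat NFAT-GFP (JNG) cells stably transduced with SARs by lentivirus, with drug selection where the construct carried a resistance gene, then co-cultured with target cells at E:T ~1:2 for ~4–18 h. % GFP-positive cells measured by FACS against parental JNG; +/- to 5+ correspond to ~5–50% GFP-positive.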

B1: 22230 (protein)
chain: MALPVTALLLPLALLLHAARPDIQMTQSPSSLSASVGDRVTITCKASDHINNWLAWYQQKPGQAPKLLIYGATTLETGVPSRFSGSGSGTDYTLTISSLQPEDFATYYCQQSWNTPWTFGQGTKLEIKRLEDLKNVFPPEVAVFEPSEAEISHTQKATLVCLATGFYPDHVELSWWVNGKEVHSGVCTDPQPLKEQPALNDSRYCLSSRLRVSATFWQNPRNHFRCQVQFYGLSENDEWTQDRAKPVTQIVSAEAWGRADCGFTSESYQQGVLSATILYEILLGKATLYAVLVSALVLMAMVKRKDSRGRAKRSGSGATNFSLLKQAGDVEENPGPTSATMDWIWRILFLVGAATGAHSGPQDKLTQWPKWLEGGGGSELPTQGTFSNVSTNVSGGGGQDKLTQWPKWLEGGGGSELPTQGTFSNVSTNVSGSGGGGSGGGGSGGGGSFEQVQLQQPGAELVKPGASVKMSCKASGYAFSSYWINWMKQKPGQGLEWIGQIYPGDGDTNYNGKFKGRATLTADTSSSTAYMQLSSLTSEDSAVYFCARSITTVVGCAMDYWGQGTSVTVSSTRIQNPDPAVYQLRDSKSSDKSVCLFTDFDSQTNVSQSKDSDVYITDKCVLDMRSMDFKSNSAVAWSNKSDFACANAFNNSIIPEDTFFPSPESSCDVKLVEKSFETDTNLNFQNLSVIGFRILLLKVAGFNLLMTLRLWSSRAKRSGSGVKQTLNFDLLKLAGDVESNPGPSRGHMTEYKPTVRLATRDDVPRAVRTLAAAFADYPATRHTVDPDRHIERVTELQELFLTRVGLDIGKVWVADDGAAVAVWTTPESVEAGAVFAEIGPRMAELSGSRLAAQQQMEGLLAPHRPKEPAWFLATVGVSPDHQGKGLGSAVVLPGVEAAERAGVPAFLETSAPRNLPFYERLGFTVTADVEVPEGPRTWCMTRKPGA
NFAT-GFP ASSAY: Raji: 4+ (refer to approximately 5%, 10%, 20%, 30%, 40% and 50% GFP positive cells)

B2: 22234 (protein)
chain: MALPVTALLLPLALLLHAARPDIQMTQSPSSLSASVGDRVTITCKASDHINNWLAWYQQKPGQAPKLLIYGATTLETGVPSRFSGSGSGTDYTLTISSLQPEDFATYYCQQSWNTPWTFGQGTKLEIKRLEDLKNVFPPEVAVFEPSEAEISHTQKATLVCLATGFYPDHVELSWWVNGKEVHSGVCTDPQPLKEQPALNDSRYCLSSRLRVSATFWQNPRNHFRCQVQFYGLSENDEWTQDRAKPVTQIVSAEAWGRADCGFTSESYQQGVLSATILYEILLGKATLYAVLVSALVLMAMVKRKDSRGRAKRSGSGATNFSLLKQAGDVEENPGPTSATMDWIWRILFLVGAATGAHSQLGPYELWELSHGSGSGSGSQLGPYELWELSHSGGGSGQLGPYELWELSHGSSGPGSGSCQFDLSTRRLKCGSGSCQFDLSTRRLKCGSGGGGSGGGGSGGGGSFEQVQLQQPGAELVKPGASVKMSCKASGYAFSSYWINWMKQKPGQGLEWIGQIYPGDGDTNYNGKFKGRATLTADTSSSTAYMQLSSLTSEDSAVYFCARSITTVVGCAMDYWGQGTSVTVSSTRIQNPDPAVYQLRDSKSSDKSVCLFTDFDSQTNVSQSKDSDVYITDKCVLDMRSMDFKSNSAVAWSNKSDFACANAFNNSIIPEDTFFPSPESSCDVKLVEKSFETDTNLNFQNLSVIGFRILLLKVAGFNLLMTLRLWSSRAKRSGSGVKQTLNFDLLKLAGDVESNPGPSRGHMTEYKPTVRLATRDDVPRAVRTLAAAFADYPATRHTVDPDRHIERVTELQELFLTRVGLDIGKVWVADDGAAVAVWTTPESVEAGAVFAEIGPRMAELSGSRLAAQQQMEGLLAPHRPKEPAWFLATVGVSPDHQGKGLGSAVVLPGVEAAERAGVPAFLETSAPRNLPFYERLGFTVTADVEVPEGPRTWCMTRKPGA
NFAT-GFP ASSAY: Raji: Raji (+/-) (refer to approximately 5%, 10%, 20%, 30%, 40% and 50% GFP positive cells)

From patent US20230212319A1, “NOVEL ANTIGEN BINDING DOMAINS AND SYNTHETIC ANTIGEN RECEPTORS INCORPORATING THE SAME” (University of Southern California, priority 2020, published 2023)
